According to article PMC11313276, “Structures of Mature and Urea-Treated Empty Bacteriophage T5: Insights into Siphophage Infection and DNA Ejection” (International Journal of Molecular Sciences, 2024):

B1: major capsid protein (MCP) pb8 (natural protein, bacteriophage T5, UniProt Q6QGD8 160-458, looked up)
chain: AVNQSSSVEVSSESYETIFSQRIIRDLQKELVVGALFEELPMSSKILTMLVEPDAGKATWVAASTYGTDTTTGEEVKGALKEIHFSTYKLAAKSFITDETEEDAIFSLLPLLRKRLIEAHAVSIEEAFMTGDGSGKPKGLLTLASEDSAKVVTEAKADGSVLVTAKTISKLRRKLGRHGLKLSKLVLIVSMDAYYDLLEDEEWQDVAQVGNDSVKLQGQVGRIYGLPVVVSEYFPAKANSAEFAVIVYKDNFVMPRQRAVTVERERQAGKQRDAYYVTQRVNLQRYFANGVVSGTYAAS
notes: major capsid protein pb8 of bacteriophage T5, 458 residues; atomic model built for residues 164-457; also called MCP gp8; gp8

Key:
Experiment in all cases: cryo-EM structure; mature T5 virions (fiberless mutant) purified by CsCl gradients, in buffer A (100 mM NaCl, 1 mM MgSO4, 1 mM CaCl2, 10 mM Tris-HCl, pH 7.6); icosahedral, symmetry-mismatch and local reconstructions of head, portal, connector, tail tube and tail tip
[1] = molecular target: tail terminator protein p142 (bacteriophage T5)
[2] = molecular target: adaptor protein p144 (bacteriophage T5)
[3] = molecular target: the molecule itself
[4] = molecular target: B1; conditions: both partners purified

Molecule	stoichiometry N [3]	other results
tail terminator protein p142 (natural protein)		stoichiometry N [1]: 6
adaptor protein p144 (natural protein)		stoichiometry N [2]: 12
p140 (natural protein, bacteriophage T5, tail tip complex protein p140 of bacteriophage T5) MFYSLMRESKIVIEYDGRGYHFDALSNYDASTSFQEFKTLRRTIHNRTNYADSIINAQDPSSISLAINFSTTLIESNFFDWMGFTREGNSLFLPRNTPNIEPIMFNMYIINHNNSCIYFENCYVSTVDFSLDKSIPILNVGIESGKFSEVSTFRDGYTITQGEVLPYSAPAVYTNSSPLPALISASMSFQQQCSWREDRNIFDINKIYTNKRAYVNEMNASATLAFYYVKRLVGDKFLNLDPETRTPLIIKNKYVSITFPLARISKRLNFSDLYQVEYDVIPTADSDPVEINFFGERK	3	
baseplate hub protein pb3 (natural protein, bacteriophage T5, baseplate hub protein pb3 of bacteriophage T5) MKKILDSAKNYLNTHDKLKTACLIALELPSSSGSAATYIYLTDYFRDVTYNGILYRSGKVKSISSHKQNRQLSIGSLSFTITGTAEDEVLKLVQNGVSFLDRGITIHQAIINEEGNILPVDPDTDGPLLFFRGRITGGGIKDNVNTSGIGTSVITWNCSNQFYDFDRVNGRYTDDASHRGLEVVNGTLQPSNGAKRPEYQEDYGFFHSNKSTTILAKYQVKEERYKLQSKKKLFGLSRSYSLKKYYETVTKEVDLDFNLAAKFIPVVYGVQKIPGIPIFADTELNNPNIVYVVYAFAEGEIDGFLDFYIGDSPMICFDETDSDTRTCFGRKKIVGDTMHRLAAGTSTSQPSVHGQEYKYNDGNGDIRIWTFHGKPDQTAAQVLVDIAKKKGFYLQNQNGNGPEYWDSRYKLLDTAYAIVRFTINENRTEIPEISAEVQGKKVKVYNSDGTIKADKTSLNGIWQLMDYLTSDRYGADITLDQFPLQKVISEAKILDIIDESYQTSWQPYWRYVGWNDPLSENRQIVQLNTILDTSESVFKNVQGILESFGGAINNLSGEYRITVEKYSTNPLRINFLDTYGDLDLSDTTGRNKFNSVQASLVDPALSWKTNSITFYNSKFKEQDKGLDKKLQLSFANITNYYTARSYADRELKKSRYSRTLSFSVPYKFIGIEPNDPIAFTYERYGWKDKFFLVDEVENTRDGKINLVLQEYGEDVFINSEQVDNSGNDIPDISNNVLPPRDFKYTPTPGGVVGAIGKNGELSWLPSLTNNVVYYSIAHSGHVNPYIVQQLENNPNERMIQEIIGEPAGLAIFELRAVDINGRRSSPVTLSVDLNSAKNLSVVSNFRVVNTASGDVTEFVGPDVKLAWDKIPEEEIIPEIYYTLEIYDSQDRMLRSVRIEDVYTYDYLLTYNKADFALLNSGALGINRKLRFRIRAEGENGEQSVGWATI	3	
distal tail protein pb9 (natural protein, bacteriophage T5, distal tail protein pb9 of bacteriophage T5) MRLPDPYTNPEYPGLGFESVNLVDNDPMIRDELPNGKVKEVKISAQYWGINISYPELFPDEYAFLDSRLLEYKRTGDYLDVLLPQYEAFRVRGDTKSVTIPAGQKGSQIILNTNGTLTGQPKAGDLFKLSTHPKVYKITNFSSSGNVWNISLYPDLFITTTGSEKPVFNGILFRTKLMNGDSFGSTLNNNGTYSGISLSLRESL	6	
tail tube protein (TTP) pb6 (natural protein, bacteriophage T5, tail tube protein pb6 of bacteriophage T5; domains pb6D1, pb6D2 and a protruding Ig-like domain; atomic model built for residues 3-378 (pb6D1 and pb6D2); The tail tube has 40 stacked trimeric rings) MSLQLLRNTRIFVSTVKTGHNKTNTQEILVQDDISWGQDSNSTDITVNEAGPRPTRGSKRFNDSLNAAEWSFSTYILPYKDKNTSKQIVPDYMLWHALSSGRAINLEGTTGAHNNATNFMVNFKDNSYHELAMLHIYILTDKTWSYIDSCQINQAEVNVDIEDIGRVTWSGNGNQLIPLDEQPFDPDQIGIDDETYMTIQGSYIKNKLTILKIKDMDTNKSYDIPITGGTFTINNNITYLTPNVMSRVTIPIGSFTGAFELTGSLTAYLNDKSLGSMELYKDLIKTLKVVNRFEIALVLGGEYDDERPAAILVAKQAHVNIPTIETDDVLGTSVEFKAIPSDLDAGDEGYLGFSSKYTRTTINNLIVNGDGATDAVTAITVKSAGNVTTLNRSATLQMSVEVTPSSARNKEVTWAITAGDAATINATGLLRADASKTGAVTVEATAKDGSGVKGTKVITVTAGG	3	
B1	775	
portal protein pb7 (natural protein, bacteriophage T5, portal protein pb7 of bacteriophage T5, 403 residues in total; atomic model built for residues 11-377; source: also in virions treated with 4 M urea for 2 h at 37 °C and dialyzed; copies: 12) LNPGQRIIRDMEPVSHRTNRKPFTTGQAYSKIEILNRTANMVIDSAAECSYTVGDKYNIVTYANGVKTKTLDTLLNVRPNPFMDISTFRRLVVTDLLFEGCAYIYWDGTSLYHVPAALMQVEADANKFIKKFIFNNQINYRVDEIIFIKDNSYVCGTNSQISGQSRVATVIDSLEKRSKMLNFKEKFLDNGTVIGLILETDEILNKKLRERKQEELQLDYNPSTGQSSVLILDGGMKAKPYSQISSFKDLDFKEDIEGFNKSICLAFGVPQVLLDGGNNANIRPNIELFYYMTIIPMLNKLTSSLTFFFGYKITPNTKEVAALTPDKEAEAKHLTSLVNNGIITGNEARSELNLEPLDDEQMNKIRIPANVAGSATGVSGQEGGRPKGSTEGD	12	
decoration protein pb10 (natural protein, bacteriophage T5, UniProt Q6QGD6 1-164, looked up, decoration protein pb10 of bacteriophage T5, 164 residues; alpha-helical domain and Ig-like domain; only residues 2-68 (alpha-helical domain) were resolved; One pb10 at the centre of each hexon; the Ig-like domain is flexible and was not modelled; also called gp10) MIDYSGLRTIFGEKLPESHIFFATVAAHKYVPSYAFLRRELGLSSAHTNRKVWKKFVEAYGKAIPPAPPAPPLTLSKDLTASMSVEEGAALTLSVTATGGTGPYTYAWTKDGSPIPDASGATYTKPTAAAEDAGSYKVTVTDSKQVSKDSTTCAVTVNPTVPGG		binding result [4]: binds
